Where “and” joins values, the source holds several entries; their conditions need not be identical. Identical values can stand only once.
T1: mouse Fn14 (full length) on transfected 293F cells (mouse, UniProt Q9CR75 28-129)
T1 sequence: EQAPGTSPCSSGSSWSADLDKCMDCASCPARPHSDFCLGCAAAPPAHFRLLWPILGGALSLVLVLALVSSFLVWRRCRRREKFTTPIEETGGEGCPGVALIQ

T2: human Fn14 (full length) on cells (human, UniProt Q9NP84 28-129)
T2 construct: Transfected 293F cells, or endogenous on HK2, HRMC, A375, HaCaT, primary keratinocytes and dermal fibroblasts; also called hFn14; TNFRSF12A
T2 sequence: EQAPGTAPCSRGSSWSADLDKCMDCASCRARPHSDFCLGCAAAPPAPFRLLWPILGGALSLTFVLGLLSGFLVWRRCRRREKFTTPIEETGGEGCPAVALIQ


Tests used:
[1] = molecular target: T1, mouse Fn14 (full length) on transfected …; test: flow cytometry, hybridoma supernatant on 293F cells transfected with mouse Fn14, detected with anti-mouse IgG PE
Protocol: FIG. 1 depicts binding of anti-Fn14 hybridoma supernatants to human and mouse Fn14 transfected cells. […] Hybridoma supernatant binding was detected using anti-mouse IgG PE.
Specifically, the binding activity of hybridoma culture supernatants or purified antibodies to Fn14-expressing cells was evaluated by flow cytometry (FCM). The cell lines evaluated by FCM were Fn14-transfected human embryonic kidney 293F cells (ThermoFisher, cat# R79007) and two cell lines endogenously expressing Fn14, human kidney-derived HK2 cells (ATCC, cat# CRL-2190) and rat kidney-derived NRK-52E cells (Japanese Collection of Research Bioresources Cell Bank (JCRB), cat# IF050480). For FCM analysis, Fn14-expressing cells were harvested using 0.25% trypsin-EDTA (Nacalai Tesque), washed with PBS, and resuspended in SM (Staining Medium: PBS containing 2% FBS, 1 mM EDTA, 0.05% sodium azide). Cells were then seeded in a 96-well plate at 1 ×10⁵ cells per well. Hybridoma supernatant or purified antibody (1 μg/mL final concentration) was added and the cells were incubated at 4° C. for 60 minutes. Cells were then washed with SM, resuspended in goat F(ab′)2 anti-mouse IgG-PE (Southern Biotech Inc.), diluted 1:500 in SM and incubated at 4° C. for 60 minutes. […] Fluorescence intensity was measured by FCM (BD Biosciences, FACS CantoII) and the data were analyzed using FlowJo software (Tomy Digital Biology Co., Ltd.).

[2] = molecular target: T2, human Fn14 (full length) on cells; test: flow cytometry on HK2 cells (endogenous human Fn14), purified antibody 1 µg/mL, detected with anti-mouse IgG PE
Protocol: (§1) Primary antibodies were used at a concentration of 1 μg/mL and binding was detected using anti-mouse IgG PE.
(§2) Specifically, the binding activity of hybridoma culture supernatants or purified antibodies to Fn14-expressing cells was evaluated by flow cytometry (FCM). The cell lines evaluated by FCM were Fn14-transfected human embryonic kidney 293F cells (ThermoFisher, cat# R79007) and two cell lines endogenously expressing Fn14, human kidney-derived HK2 cells (ATCC, cat# CRL-2190) and rat kidney-derived NRK-52E cells (Japanese Collection of Research Bioresources Cell Bank (JCRB), cat# IF050480). For FCM analysis, Fn14-expressing cells were harvested using 0.25% trypsin-EDTA (Nacalai Tesque), washed with PBS, and resuspended in SM (Staining Medium: PBS containing 2% FBS, 1 mM EDTA, 0.05% sodium azide). Cells were then seeded in a 96-well plate at 1 ×10⁵ cells per well. Hybridoma supernatant or purified antibody (1 μg/mL final concentration) was added and the cells were incubated at 4° C. for 60 minutes. Cells were then washed with SM, resuspended in goat F(ab′)2 anti-mouse IgG-PE (Southern Biotech Inc.), diluted 1:500 in SM and incubated at 4° C. for 60 minutes. Cells were washed with SM and finally resuspended in 50 μL of SM. Fluorescence intensity was measured by FCM (BD Biosciences, FACS CantoII) and the data were analyzed using FlowJo software (Tomy Digital Biology Co., Ltd.).

[3] = molecular target: T3, rat Fn14, endogenous on NRK-52E cells (rat, UniProt Q9CR75 28-129 (mouse entry)); test: flow cytometry on NRK-52E cells (endogenous rat Fn14), purified antibody 1 µg/mL, detected with anti-mouse IgG PE
T3 construct: Endogenous protein of rat kidney cells; also called NRK52E-A15/Luc cells
Protocol: as §1, §2

[4] = molecular target: T4, His-SUMO-huFn14 (soluble human Fn14 aa 28-75 with N-terminal 6xHis-SUMO tag) (human); test: SPR Biacore T200; His-SUMO-huFn14 amine-coupled, Fab analyte; 1:1 fit
T4 construct: also called His-SUMO-Fn14; His-SUMO-hFn14
T4 sequence (chain, as listed by the source limits assumed): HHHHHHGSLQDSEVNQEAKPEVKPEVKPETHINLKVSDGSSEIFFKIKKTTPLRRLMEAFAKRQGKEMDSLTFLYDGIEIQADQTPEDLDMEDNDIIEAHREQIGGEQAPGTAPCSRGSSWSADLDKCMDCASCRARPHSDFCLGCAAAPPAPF
Protocol: (§3) In order to kinetically analyze the binding activity of anti-Fn14 mouse antibodies 41c, R35B9, and CRCBT-06-002 to recombinant human and cynomolgus macaque Fn14 proteins, the binding activity was measured by surface plasmon resonance method (SPR). Antibodies were generated as described herein. All of the following procedures were carried out using a Biacore T200 (GE Healthcare Bio-Sciences). To determine antibody affinity to human Fn14, recombinant human His-SUMO-Fn14 was immobilized on a CMS sensor chip (GE Healthcare Bio-Sciences) by amine coupling chemistry. In particular, the kinetic assay was carried out by immobilizing on the chip approximately 20-30 RU of recombinant protein, in order to achieve a low protein immobilization level. To determine antibody affinity to cynomolgus macaque Fn14, polyclonal anti-GST antibodies were immobilized on a CMS sensor chip (GE Healthcare Bio-Sciences) by amine coupling chemistry. In particular, after immobilizing approximately 1500 RU of anti-GST capture antibody onto the chip, cynomolgus macaque GST-Fn14 in culture supernatant was allowed to run for 5 minutes at a flow rate of 30 μL/min in order to achieve a low capture level of approximately 20 RU. Thereafter, antibody Fab fragments, serially diluted from a high concentration, were allowed to run at a flow rate of 30 μL/min onto the chip for 300 seconds. The dissociation time was 1800 seconds and the binding curves were measured at 25° C. Regeneration was performed with 10 mM glycine pH 1.5 for 30 seconds. The raw data were double referenced by subtraction of the signals from a reference flow cell without immobilized ligand and a buffer blank.
(§4) A sensorgram corresponding to each concentration was obtained (see FIG. 5). Analysis was carried out using a 1:1 Langmuir fit model using the analysis software attached to the apparatus, Biacore T200 Evaluation software (Biacore), thereby calculating an association rate constant ka [M-1s-1] and a dissociation rate constant kd [s-1] for the recombinant Fn14 proteins. […] Cross-reactivity of anti-Fn14 mouse antibodies to recombinant mouse GST-Fn14 protein was measured as described above.

[5] = molecular target: T5, cynomolgus macaque Fn14-GST (cynomolgus macaque (Macaca fascicularis)); test: SPR Biacore T200; cyno Fn14-GST captured by anti-GST, Fab analyte; 1:1 fit
T5 construct: Used from culture supernatant, captured by anti-GST; also called cyno Fn14-GST; CynoFn14
T5 sequence (chain, as listed by the source): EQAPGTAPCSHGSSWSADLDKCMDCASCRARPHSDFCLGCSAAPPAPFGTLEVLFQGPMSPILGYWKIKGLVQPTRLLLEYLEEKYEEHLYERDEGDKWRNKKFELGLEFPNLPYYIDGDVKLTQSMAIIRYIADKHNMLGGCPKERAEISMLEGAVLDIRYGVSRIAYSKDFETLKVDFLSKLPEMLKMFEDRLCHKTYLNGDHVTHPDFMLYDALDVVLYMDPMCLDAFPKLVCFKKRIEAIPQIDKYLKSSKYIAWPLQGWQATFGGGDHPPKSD
Protocol: as §3, §4

[6] = molecular target: T4, His-SUMO-huFn14 (soluble human Fn14 aa …); test: SPR Biacore T200; His-SUMO-huFn14 amine-coupled, Fab analyte; average of two runs
Protocol: (§5) In order to kinetically analyze the binding activity of anti-Fn14 mouse antibodies 41c, R35B9, and CRCBT-06-002 to recombinant human and cynomolgus macaque Fn14 proteins, the binding activity was measured by surface plasmon resonance method (SPR). Antibodies were generated as described herein. All of the following procedures were carried out using a Biacore T200 (GE Healthcare Bio-Sciences). To determine antibody affinity to human Fn14, recombinant human His-SUMO-Fn14 was immobilized on a CMS sensor chip (GE Healthcare Bio-Sciences) by amine coupling chemistry. In particular, the kinetic assay was carried out by immobilizing on the chip approximately 20-30 RU of recombinant protein, in order to achieve a low protein immobilization level. To determine antibody affinity to cynomolgus macaque Fn14, polyclonal anti-GST antibodies were immobilized on a CMS sensor chip (GE Healthcare Bio-Sciences) by amine coupling chemistry. […] The dissociation time was 1800 seconds and the binding curves were measured at 25° C. […]
(§6) A sensorgram corresponding to each concentration was obtained (see FIG. 5). […] Cross-reactivity of anti-Fn14 mouse antibodies to recombinant mouse GST-Fn14 protein was measured as described above.

[7] = molecular target: T5, cynomolgus macaque Fn14-GST; test: SPR Biacore T200; cyno Fn14-GST captured by anti-GST, Fab analyte; average of two runs
Protocol: as §5, §6

[8] = molecular target: T6, mouse Fn14-GST (mouse); test: SPR (Biacore T200); mouse Fn14-GST captured by immobilized anti-GST antibody, analyte at 10 nM
T6 construct: also called mouse GST-Fn14
Protocol: as §5, §6

Binder | binding result [1] | binding result [2] | binding result [3] | Kd [4] | koff [4] | kon [4] | Kd [5] | koff [5] | kon [5] | Kd [6] [nM] | Kd [7] [nM] | binding result [8]
KO42d mouse monoclonal antibody (hybridoma-derived) (antibody, V domains shown, Hybridoma supernatant or purified antibody from an Fn14 knockout mouse; native mouse IgG, kappa) VH: EVQLLQSGPELVKPVASVKMSCKASGYTFTDYNIHWVKQSHGKSLEWIGYINPNNGVTGYNQKFRGKATLTVNRSSNTAYMDLRSLTSEDSAVYYCTRRYGDYVHAMDCWGQGTSVTVSS VL: DIQMTQSPSSLSASLGERVSLTCRASQDIGSRLNWLQQEPDGTIKRLIYATSSLDSGVPKRFSGSRSGSDYSLTISSLESEDFVDYYCLQYASSPYTFGGGTKLEIK | binds | binds | binds |  |  |  |  |  |  |  |  | 
R35B9 Fab (enzymatic digest of the mouse IgG1 antibody) (Fab, V domains shown, not shown: a dimerising Fc or GST, Made with the mouse IgG1 Fab and F(ab')2 preparation kit; also called R35B9 Fab LM042817) VH: EVQLQQSGPELVKPGASVKMSCKASGYIFQDYNMHWVKQSHGKSLEWIGSINPRNGWTNYNQKFKGKATLTVNKSSRSAYMEFRSLTSEDSAVYYCASSGWFTYWGQGTLVTVSA VL: not shown |  |  |  | 0.205 nM and 0.21 nM | 0.00063 s⁻¹ and 0.000427 s⁻¹ | 3.07e+06 M⁻¹ s⁻¹ and 2.03e+06 M⁻¹ s⁻¹ | 0.235 nM and 0.222 nM | 0.000342 s⁻¹ and 0.00038 s⁻¹ | 1.46e+06 M⁻¹ s⁻¹ and 1.71e+06 M⁻¹ s⁻¹ | 0.208 | 0.229 | binds
41c Fab (enzymatic digest of the mouse IgG1 antibody) (Fab, V domains shown, not shown: a dimerising Fc or GST, Made with the mouse IgG1 Fab and F(ab')2 preparation kit; also called 41C Fab LM101416) VH: EVQLQQSGPELVKPGASVKMSCKASGYTFTDYNMHWVKQSHGKSLEWIGYINPNNGGTNYNQKFKGKATLTVNKSSRSAYMEFRSLTSEDSAVYYCASSGWFTYWGQGTLVTVSA VL: not shown |  |  |  | 2.15 nM and 1.81 nM | 0.00242 s⁻¹ and 0.00266 s⁻¹ | 1.13e+06 M⁻¹ s⁻¹ and 1.47e+06 M⁻¹ s⁻¹ | 3.48 nM and 3.28 nM | 0.00153 s⁻¹ and 0.00223 s⁻¹ | 441000 M⁻¹ s⁻¹ and 678000 M⁻¹ s⁻¹ | 1.98 | 3.38 | binds

From US20220289857A1 (Kyowa Kirin, published 2022)
